This note sets out measurements from doi:10.1101/2023.01.23.525191, “Mechanism of an alternative splicing switch mediated by cell-specific and general splicing regulators” (bioRxiv, 2023).

Data set [1] deals with the molecule itself. As to the kind of experiment: SEC; size exclusion chromatography of recombinant untagged protein; dimer and higher-order assemblies. For orientation: In gel filtration, larger molecules generally elute earlier.
Data set [2] deals with the molecule itself. As to the kind of experiment: AUC; sedimentation velocity, 500 mM KCl, 20 mM HEPES, 1 mM TCEP, pH 7.9, 20 °C; FL 0.46 and ΔC20 0.57 mg/ml as printed; dimers and higher-order oligomers.

The term stoichiometry N denotes a count of units in the complex or per binding partner.

B1: recombinant untagged full length rat RBPMS-A (natural protein)
chain: not shown
notes: RBPMS isoform A (RBPMS-A), rat, cDNA NCBI XM_006253240.2, full length open reading frame; it may be the rat protein; Exists as a mixture of dimers and higher-order oligomers; also called FL RBPMS; FL; source: E. coli BL21 (DE3), purified (Histrap, TEV cleavage, mono Q, Superdex 200); not shown: His6, N-terminal, cleaved
As to B1, the “stoichiometry N” value in data set [1] was 2; in data set [2], approximately 21.
